Measurements reported in the supplement of paper PMC5998384.

Key:
HeLa Kyoto [1] = test: solubility in G1/S (NP-40 vs SDS abundance) (log2 ratio); higher = more soluble; conditions: cell cycle stage: G1/S
HeLa Kyoto [2] = test: thermal stability score vs G1/S (z-score of summed log2 fold changes over temperatures); higher = more thermally stable than in G1/S
HeLa Kyoto [3] = test: solubility change mitosis vs G1/S (difference of NP-40 vs SDS log2 ratios) (log2 ratio difference); higher = more soluble in mitosis
[4] = cell cycle stage: early G1 (4.5 h after nocodazole release)
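Throughout, for solubility change mitosis vs G1/S (difference of NP-40 vs SDS log2 ratios): synchronized HeLa Kyoto cells (double thymidine block for G1/S, nocodazole release for mitosis), protein amounts in NP-40 versus SDS lysates quantified by mass spectrometry, three biological replicates.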
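Throughout, for solubility in G1/S (NP-40 vs SDS abundance): HeLa Kyoto cells arrested at G1/S by double thymidine block, proteins quantified by TMT10plex mass spectrometry in mild NP-40 versus SDS extracts, three biological replicates.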
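Throughout, for thermal stability score vs G1/S (z-score of summed log2 fold changes over temperatures): synchronized HeLa Kyoto cells, proteins quantified by TMT10plex mass spectrometry, three biological replicates, mitosis taken 0.5 h after nocodazole release, G1/S directly after double thymidine block.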

Sequence of MFSD12 (chain, as listed by the source): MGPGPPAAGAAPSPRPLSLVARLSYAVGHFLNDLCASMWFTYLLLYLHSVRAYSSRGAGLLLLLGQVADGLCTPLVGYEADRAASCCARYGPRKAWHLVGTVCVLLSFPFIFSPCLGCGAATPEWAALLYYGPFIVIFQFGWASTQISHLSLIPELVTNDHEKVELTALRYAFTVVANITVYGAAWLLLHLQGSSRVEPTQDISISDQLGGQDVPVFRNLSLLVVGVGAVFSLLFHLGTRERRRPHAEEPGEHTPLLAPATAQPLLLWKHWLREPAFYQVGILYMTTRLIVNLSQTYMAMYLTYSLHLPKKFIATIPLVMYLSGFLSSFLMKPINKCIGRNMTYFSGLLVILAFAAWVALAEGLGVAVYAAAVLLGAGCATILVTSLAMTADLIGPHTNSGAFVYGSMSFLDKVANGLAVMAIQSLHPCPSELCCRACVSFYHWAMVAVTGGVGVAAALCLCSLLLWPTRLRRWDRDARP

MGDKGTRVFKKASPNGKLTVYLGKRDFVDHIDLVDPVDGVVLVDPEYLKERRVYVTLTCAFRYGREDLDVLGLTFRKDLFVANVQSFPPAPEDKKPLTRLQERLIKKLGEHAYPFTFEIPPNLPCSVTLQPGPEDTGKACGVDYEVKAFCAENLEEKIHKRNSVRLVIRKVQYAPERPGPQPTAETTRQFLMSDKPLHLEASLDKEIYYHGEPISVNVHVTNNTNKTVKKIKISVRQYADICLFNTAQYKCPVAMEEADDTVAPSSTFCKVYTLTPFLANNREKRGLALDGKLKHEDTNLASSTLLREGANREILGIIVSYKVKVKLVVSRGGLLGDLASSDVAVELPFTLMHPKPKEEPPHREVPENETPVDTNLIELDTNDDDIVFEDFARQRLKGMKDDKEEEEDGTGSPQLNNR [ARRB1]
solubility in G1/S (log2) (HeLa Kyoto [1]): 0.139 | thermal stability score (HeLa Kyoto [2]; [4]): -0.748 | thermal stability score (HeLa Kyoto [2]; cell cycle stage: mitosis): -0.986 | solubility change mitosis (log2) (HeLa Kyoto [3]): -0.0694

MAGKAAAPGTAVLLVTANVGSLFDDPENLQKNWLREFYQVVHTHKPHFMALHCQEFGGKNYEASMSHVDKFVKELLSSDAMKEYNRARVYLDENYKSQEHFTALGSFYFLHESLKNIYQFDFKAKKYRKVAGKEIYSDTLESTPMLEKEKFPQDYFPECKWSRKGFIRTRWCIADCAFDLVNIHLFHDASNLVAWETSPSVYSGIRHKALGYVLDRIIDQRFEKVSYFVFGDFNFRLDSKSVVETLCTKATMQTVRAADTNEVVKLIFRESDNDRKVMLQLEKKLFDYFNQEVFRDNNGTALLEFDKELSVFKDRLYELDISFPPSYPYSEDARQGEQYMNTRCPAWCDRILMSPSAKELVLRSESEEKVVTYDHIGPNVCMGDHKPVFLAFRIMPGAGKPHAHVHKCCVVQ [INPP5A]
solubility in G1/S (log2) (HeLa Kyoto [1]): -0.359 | thermal stability score (HeLa Kyoto [2]; [4]): 0.56 | thermal stability score (HeLa Kyoto [2]; cell cycle stage: mitosis): -0.257 | solubility change mitosis (log2) (HeLa Kyoto [3]): -0.17

MFSD12
solubility in G1/S (log2) (HeLa Kyoto [1]): -0.246 | thermal stability score (HeLa Kyoto [2]; [4]): 0.154 | thermal stability score (HeLa Kyoto [2]; cell cycle stage: mitosis): 0.3 | solubility change mitosis (log2) (HeLa Kyoto [3]): -0.237

MVRGARQPQQPRSRLAPRLTGTVEKPPRKRRSRTEFALKEIMSSGGAEDDIPQGERKTVTDFCYLLDKSKQLFNGLRDLPQYGQKQWQSYFGRTFDVYTKLWKFQQQHRQVLDNRYGLKRWQIGEIASKIGQLYYHYYLRTSETSYLNEAFSFYSAIRQRSYYSQVNKEDRPELVVKKLRYYARFIVVCLLLNKMDVVKDLVKELSDEIEDYTHRFNTEDQVEWNLVLQEVAAFIEADPVMVLNDDNTIVITSNRLAETGAPLLEQGMIVGQLSLADALIIGNCNNQVKFSELTVDMFRMLQALEREPMNLASQMNKPGMQESADKPTRRENPHKYLLYKPTFSQLYTFLAASFKELPANSVLLIYLSATGVFPTGRSDSEGPYDFGGVLTNSNRDIINGDAIHKRNQSHKEMHCLHPGDLYPFTRKPLFIIVDSSNSVAYKNFTNLFGQPLVCLLSPTAYPKALQDQSQRGSLFTLFLNNPLMAFLFVSGLSSMRRGLWEKCQEYLRKINRDIAQLLTHSRSIDQAFLQFFGDEFLRLLLTRFIFCSATMRMHKIFRETRNYPESYPQLPRDETVENPHLQKHILELASILDVRNVFFENTIDDY [SCAI]
solubility in G1/S (log2) (HeLa Kyoto [1]): -0.309 | thermal stability score (HeLa Kyoto [2]; [4]): 0.148 | thermal stability score (HeLa Kyoto [2]; cell cycle stage: mitosis): -0.274 | solubility change mitosis (log2) (HeLa Kyoto [3]): -0.117

MSAKDERAREILRGFKLNWMNLRDAETGKILWQGTEDLSVPGVEHEARVPKKILKCKAVSRELNFSSTEQMEKFRLEQKVYFKGQCLEEWFFEFGFVIPNSTNTWQSLIEAAPESQMMPASVLTGNVIIETKFFDDDLLVSTSRVRLFYV [PDE6D]
solubility in G1/S (log2) (HeLa Kyoto [1]): 0.207 | thermal stability score (HeLa Kyoto [2]; [4]): 0.113 | thermal stability score (HeLa Kyoto [2]; cell cycle stage: mitosis): -0.864 | solubility change mitosis (log2) (HeLa Kyoto [3]): -0.258

PIKFYVE
solubility in G1/S (log2) (HeLa Kyoto [1]): -0.0952 | thermal stability score (HeLa Kyoto [2]; [4]): 0.473 | thermal stability score (HeLa Kyoto [2]; cell cycle stage: mitosis): 0.726 | solubility change mitosis (log2) (HeLa Kyoto [3]): -0.153

MPGRSSSNSGSTGFISFSGVESALSSLKNFQACINSGMDTASSVALDLVESQTEVSSEYSMDKAMVEFATLDRQLNHYVKAVQSTINHVKEERPEKIPDLKLLVEKKFLALQSKNSDADFQNNEKFVQFKQQLKELKKQCGLQADREADGTEGVDEDIIVTQSQTNFTCPITKEEMKKPVKNKVCGHTYEEDAIVRMIESRQKRKKKAYCPQIGCSHTDIRKSDLIQDEALRRAIENHNKKRHRHSE [NSMCE2]
solubility in G1/S (log2) (HeLa Kyoto [1]): -0.0327 | thermal stability score (HeLa Kyoto [2]; [4]): -0.691 | thermal stability score (HeLa Kyoto [2]; cell cycle stage: mitosis): -0.266 | solubility change mitosis (log2) (HeLa Kyoto [3]): 0.0514
